Test results published in patent publication US20220136009, “COMPOSITIONS AND METHODS FOR SELECTIVE GENE REGULATION” (Encoded Therapeutics, Inc., published 2022).

How the values were obtained:
Conditions in all cases: tags: NLS, HA tag
[1] = molecular target: Construct 29 eTF (eZF z14-VP64) (synthetic construct); experiment: cell_activity; endogenous SCN1A mRNA in HEK293 vs EGFP-KASH; p=0.164
Description: (§1) HEK293 cells were cultured per standard methods, and transfected (FugeneHD, Promega) with 3 ug plasmid carrying an engineered transcription factor or control construct per well of a 6-well plate. 48h following transfection, cells were collected and RNA was isolated (Qiagen RNeasy Mini kit), and DNase treated. RNA (3 ug) was reverse transcribed using OligoDT primers (Superscript IV, Invitrogen). cDNA samples were analyzed by qPCR using Phusion Polymerase (New England Biolabs) and SYBR Green I: (30s at 98° C., 40×[10 sec at 98° C., 15 sec at 66° C., 15 sec at 72° C.]). Primers against SCN1A (5′-[…]-3′ (SEQ ID NO: 185); 5′-[…]-3′ (SEQ ID NO: 186)) were used to quantify levels of endogenous SCN1A transcript, and relative levels of SCN1A expression were determined by the delta-delta Ct method with GAPDH as a reference gene (5′-[…]′-3′ (SEQ ID NO: 187); 5′-[…]-3′ (SEQ ID NO: 188)). Data are presented as fold changes relative to the control condition.

[2] = molecular target: Construct 4 eTF (eZF z1-VP64) (synthetic construct); experiment: cell_activity; endogenous SCN1A mRNA in HEK293 vs EGFP-KASH; p=0.0097; also about 20-30% Scn1a upregulation in mouse hippocampus
Description: as §1

[3] = molecular target: Construct 30 eTF (eZF z13-VPR) (synthetic construct); experiment: cell_activity; SCN1A mRNA by RNAseq in iCell GABA neurons vs CBA-EGFP; SCN1A-selective among 40 neighbouring genes
Description: iCell GABA neurons (Cellular Dynamics) were plated in a 6-well plate (˜1E6 cells/well) and maintained per manufacturer's recommended protocol. 72h following plating, recombinant AAV (serotype AAV-DJ) expressing EGFP or activator (Construct 30), which comprises a zinc finger DBD fused to a VPR TAD driven by a CBA promoter) under the control of a CBA promoter was added to the culture media at approximately 2E11 genome copies/well.
One week following infection, RNA was isolated from cultured cells (Qiagen RNeasy Mini kit), and DNase treated. RNAseq libraries were prepared from the recovered RNA, using the TruSeq Stranded mRNA library kit (Illumina) and sequenced on an Illumina NextSeq (2×75 cycle paired end sequencing). Sequencing reads were aligned to human genome (RNASTAR) and differential expression analysis was performed with DESeq2. Data are presented as fold change with respect to control (AAVDJ-CBA-EGFP) samples (see FIG. 4). Results are shown in TABLE 14 and FIG. 4 illustrates the relative expression of endogenous SCN1A and the 40 nearest neighboring gene transcripts presented as fold changes relative to the control condition. Construct 30, as described in TABLE 1, was able to specifically increase expression of the SCN1A gene, or the Nav1.1 protein, as compared to the other genes examined. […]

[4] = molecular target: Construct 3 eTF (eZF z13-VP64) (synthetic construct); experiment: cell_activity; endogenous SCN1A mRNA in HEK293 vs EGFP-KASH; p=0.149
Description: as §1

Sequence of Construct 30 eTF (eZF z13-VPR) (synthetic construct) (chain, as listed by the source): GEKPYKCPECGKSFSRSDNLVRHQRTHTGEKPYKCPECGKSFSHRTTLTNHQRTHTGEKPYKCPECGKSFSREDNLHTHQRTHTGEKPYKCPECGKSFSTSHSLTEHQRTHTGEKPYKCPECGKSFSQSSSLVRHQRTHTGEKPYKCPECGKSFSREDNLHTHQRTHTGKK

B1: z14 target site (dsDNA)
DNA 1: GAGGATACTGCAGAGGTC
DNA 2: GACCTCTGCAGTATCCTC
activity [1]: 8.68 fold

B2: z1 target site (dsDNA)
DNA 1: CTAGGTCAAGTGTAGGAG
DNA 2: CTCCTACACTTGACCTAG
activity [2]: 5.12 fold

B3: z13 target site (dsDNA)
DNA 1: TAGGTACCATAGAGTGAG
DNA 2: CTCACTCTATGGTACCTA
activity [3]: 63 fold | activity [4]: 25.5 fold
